{"source": "patent US20100297683A1", "about": "(QUEEN MARY AND WESTFIELD COLLEGE, published 2010)", "molecules": {"B1": {"name": "Human Neutrophil Elastase (protein)", "chain": "IVGGRRARPHAWPFMVSLQLRGGHFCGATLIAPNFVMSAAHCVANVNVRAVRVVLGAHNLSRREPTRQVFAVQRIFENGYDPVNLLNDIVILQLNGSATINANVQVAQLPAQGRRLGNGVQCLAMGWGLLGRNRGIASVLQELNVTVVTSLCRRSNVCTLVRGRQAGVCFGDSGSPLVCNGLIHGIASFVRGGCASGLYPDAFAPVAQFVNWIDSIIQ"}, "B2": {"name": "Ala-Ala-Pro-Val-Ala-Ala-Lys-NH2 (AAPVAAK) peptide cross-linker in acrylamide hydrogel film (peptide)", "peptide": "AAPVAAK-NH2", "modifications": "not fully specified (N-terminus); printed as Ala-Ala-Pro-Val-Ala-Ala-Lys-NH2; also: both ends capped with acryloyl group, copolymerised with acrylamide into hydrogel film"}}, "key": {"[1]": {"test_system": "T1, AAPVAAK cross-linked dextran hydrogel", "T1 sequence": "AAPVAAK"}, "[2]": {"test_system": "T2, AAPFFK cross-linked dextran hydrogel", "T2 sequence": "AAPFFK"}, "[3]": {"biological_target": "T3, Ala-Ala-Pro-Val-Ala-Ala-Lys-NH2 (AAPVAAK) peptide cross-linker in acrylamide hydrogel film (not fully specified)", "T3 chain": "AAPVAAK"}, "[4]": {"biological_target": "T4, AAPVAAK cross-linked dextran hydrogel (not fully specified)", "T4 chain": "AAPVAAK"}, "[5]": {"biological_target": "T5, AAPFFK cross-linked dextran hydrogel", "T5 chain": "AAPFFK"}, "[6]": {"biological_target": "T6, BSA (UniProt P02769 25-607)", "T6 construct": "Control protein added instead of HNE", "T6 sequence (P02769 25-607 limits assumed)": "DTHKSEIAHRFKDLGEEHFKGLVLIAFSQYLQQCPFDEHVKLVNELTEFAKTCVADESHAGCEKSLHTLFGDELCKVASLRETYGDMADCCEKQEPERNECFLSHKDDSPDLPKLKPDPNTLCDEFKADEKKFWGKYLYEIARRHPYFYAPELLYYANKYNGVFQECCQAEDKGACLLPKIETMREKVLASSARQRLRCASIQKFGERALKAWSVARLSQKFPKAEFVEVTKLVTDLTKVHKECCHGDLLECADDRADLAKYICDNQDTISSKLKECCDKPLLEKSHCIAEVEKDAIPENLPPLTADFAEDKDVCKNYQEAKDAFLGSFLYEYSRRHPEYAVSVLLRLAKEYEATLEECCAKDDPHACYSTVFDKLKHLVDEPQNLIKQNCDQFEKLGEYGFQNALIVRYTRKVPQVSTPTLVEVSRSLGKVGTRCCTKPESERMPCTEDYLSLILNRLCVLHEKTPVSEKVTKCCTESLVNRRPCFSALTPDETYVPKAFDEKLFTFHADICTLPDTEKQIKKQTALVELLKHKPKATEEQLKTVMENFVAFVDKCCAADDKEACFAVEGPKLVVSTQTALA", "experiment": "QCM admittance (mass, delta XL) on peptide hydrogel film"}}, "note": "Ends that are not written are not given here."}
{"molecule": "cathepsin G", "values": [{"measurement": "degradation of hydrogel film monitored by QCM, 100 mU cathepsin G", "setting": "[1]", "result": "slow degradation was observed, indicating some minor cross-sensitivity"}, {"measurement": "degradation of hydrogel film monitored by QCM resonant frequency, 100 mU/ml cathepsin G", "setting": "[2]", "result": "Cathepsin G caused the films to degrade resulting in an increase in resonant frequency"}]}
{"molecule": "B1", "values": [{"measurement": "change of QCM parameter delta XL (mass of the hydrogel film) after addition of HNE", "setting": "[3]", "result": "The gradual decrease in mass was due to the breakage of peptide bonds and the subsequent dissolution of the film resulting in mass loss from the surface of the crystal"}, {"measurement": "change of QCM resistive component delta R after addition of HNE", "setting": "[3]", "result": "The gradual decrease was caused by the cleavage of peptide bonds and subsequent dissolution of the hydrogel by the action of the enzyme human neutrophil elastase"}, {"measurement": "degradation of hydrogel film monitored by QCM resonance frequency (25% cross-linked film)", "setting": "[4]", "result": "After 10 min of enzyme exposure, the film was completely degraded"}, {"measurement": "degradation of hydrogel film monitored by QCM resonance frequency (50% cross-linked, reduced film)", "setting": "[4]", "result": "the rate of degradation increased when the HNE concentration was increased"}, {"measurement": "degradation of hydrogel film monitored by QCM, 10 U/ml HNE", "setting": "[5]", "result": "There was no noticeable degradation of the hydrogel when HNE was introduced"}]}
{"molecule": "B2", "values": [{"measurement": "binding result", "setting": "[6]", "result": "no binding"}]}
